Laboratory results as given in the supplement of paper PMC10567573.

B1: TRIM35 (parent)
chain: WEVQVSPTCPVCKDRASPADLRTN
B2: NEUROD6 (parent)
chain: YHSPELTTPPGHGTLDNSKSMKPY

Variants of: B1
Assay: protein stability index of a GFP-peptide fusion (GPS, HEK-293T) (PSI 1-6); higher = more stable
Conditions: c terminus: a fixed tail appended
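Further: lentivirally expressed fusions sorted by FACS into six bins by GFP to DsRed ratio, PSI derived from sequencing read proportions per bin multiplied by bin number.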

| Variant | protein stability index |
| --- | --- |
| WEVWVSPTCPVCKDRASPADLRTN | 1.48 |
| WEVSVSPTCPVCKDRASPADLRTN | 1.87 |
| WEVAVSPTCPVCKDRASPADLRTN | 1.73 |
| WEVKVSPTCPVCKDRASPADLRTN | 2.07 |
| WEVEVSPTCPVCKDRASPADLRTN | 2.08 |
| WEVPVSPTCPVCKDRASPADLRTN | 3.58 |
| WEVNVSPTCPVCKDRASPADLRTN | 2.73 |
| WEVLVSPTCPVCKDRASPADLRTN | 2.08 |
| WEVRVSPTCPVCKDRASPADLRTN | 1.9 |
| WEVVVSPTCPVCKDRASPADLRTN | 2 |
| WEVCVSPTCPVCKDRASPADLRTN | 2.2 |
| WEVYVSPTCPVCKDRASPADLRTN | 3.38 |
| WEVTVSPTCPVCKDRASPADLRTN | 2.36 |
| EEVQVSPTCPVCKDRASPADLRTN | 3.52 |
| TEVQVSPTCPVCKDRASPADLRTN | 2.79 |
| DEVQVSPTCPVCKDRASPADLRTN | 3.25 |
| KEVQVSPTCPVCKDRASPADLRTN | 3.54 |
| REVQVSPTCPVCKDRASPADLRTN | 3.66 |
| IEVQVSPTCPVCKDRASPADLRTN | 2.08 |
| CEVQVSPTCPVCKDRASPADLRTN | 3 |
| NEVQVSPTCPVCKDRASPADLRTN | 3.23 |
| VEVQVSPTCPVCKDRASPADLRTN | 3.4 |
| GEVQVSPTCPVCKDRASPADLRTN | 2.92 |
| FEVQVSPTCPVCKDRASPADLRTN | 2.85 |
| HEVQVSPTCPVCKDRASPADLRTN | 3.37 |
| SEVQVSPTCPVCKDRASPADLRTN | 2.6 |

| Variant | protein stability index |
| --- | --- |
| AEVQVSPTCPVCKDRASPADLRTN | 3.05 |
| QEVQVSPTCPVCKDRASPADLRTN | 3.1 |
| LEVQVSPTCPVCKDRASPADLRTN | 3.13 |
| YEVQVSPTCPVCKDRASPADLRTN | 2.65 |
| MEVQVSPTCPVCKDRASPADLRTN | 2.75 |
| PEVQVSPTCPVCKDRASPADLRTN | 3.29 |
| WEDQVSPTCPVCKDRASPADLRTN | 3.35 |
| WEYQVSPTCPVCKDRASPADLRTN | 3.35 |
| WEAQVSPTCPVCKDRASPADLRTN | 3.31 |
| WEMQVSPTCPVCKDRASPADLRTN | 2.79 |
| WEIQVSPTCPVCKDRASPADLRTN | 2.89 |
| WEFQVSPTCPVCKDRASPADLRTN | 2.39 |
| WESQVSPTCPVCKDRASPADLRTN | 3.38 |
| WEWQVSPTCPVCKDRASPADLRTN | 2.8 |
| WELQVSPTCPVCKDRASPADLRTN | 2.55 |
| WEHQVSPTCPVCKDRASPADLRTN | 3.16 |
| WENQVSPTCPVCKDRASPADLRTN | 3.38 |
| WEKQVSPTCPVCKDRASPADLRTN | 2.83 |
| WEGQVSPTCPVCKDRASPADLRTN | 2.29 |
| WETQVSPTCPVCKDRASPADLRTN | 3.5 |
| WECQVSPTCPVCKDRASPADLRTN | 2.11 |
| WEQQVSPTCPVCKDRASPADLRTN | 2.96 |
| WEPQVSPTCPVCKDRASPADLRTN | 2.49 |
| WERQVSPTCPVCKDRASPADLRTN | 2.31 |
| WEVQHSPTCPVCKDRASPADLRTN | 2.97 |
| WEVQPSPTCPVCKDRASPADLRTN | 1.68 |

| Variant | protein stability index |
| --- | --- |
| WEVQNSPTCPVCKDRASPADLRTN | 2.71 |
| WEVQMSPTCPVCKDRASPADLRTN | 2.41 |
| WEVQLSPTCPVCKDRASPADLRTN | 2.29 |
| WEVQISPTCPVCKDRASPADLRTN | 2.27 |
| WEVQKSPTCPVCKDRASPADLRTN | 2.98 |
| WEVQGSPTCPVCKDRASPADLRTN | 2.48 |
| WEVQDSPTCPVCKDRASPADLRTN | 4.04 |
| WEVQASPTCPVCKDRASPADLRTN | 2.15 |
| WTVQVSPTCPVCKDRASPADLRTN | 2.02 |
| WAVQVSPTCPVCKDRASPADLRTN | 2.48 |
| WIVQVSPTCPVCKDRASPADLRTN | 2.45 |
| WPVQVSPTCPVCKDRASPADLRTN | 2.12 |
| WSVQVSPTCPVCKDRASPADLRTN | 2.58 |
| WHVQVSPTCPVCKDRASPADLRTN | 2.51 |
| WMVQVSPTCPVCKDRASPADLRTN | 1.41 |
| WVVQVSPTCPVCKDRASPADLRTN | 2.21 |
| WKVQVSPTCPVCKDRASPADLRTN | 2.42 |
| WGVQVSPTCPVCKDRASPADLRTN | 2.56 |
| WNVQVSPTCPVCKDRASPADLRTN | 2.3 |
| WWVQVSPTCPVCKDRASPADLRTN | 1.68 |
| WCVQVSPTCPVCKDRASPADLRTN | 2.46 |
| WRVQVSPTCPVCKDRASPADLRTN | 1.98 |
| WFVQVSPTCPVCKDRASPADLRTN | 1.72 |
| WDVQVSPTCPVCKDRASPADLRTN | 2.2 |

Variants of: B2
Assay: as above
Conditions: c terminus: a fixed tail appended

| Variant | protein stability index |
| --- | --- |
| YHSPELTTPPGHGTLDNSKSMKEY | 2.41 |
| YHSPELTTPPGHGTLDNSKSMKNY | 2.36 |
| YHSPELTTPPGHGTLDNSKSMKFY | 2.33 |
| YHSPELTTPPGHGTLDNSKSMKLY | 2.44 |
| YHSPELTTPPGHGTLDNSKSMKGY | 2.23 |
| YHSPELTTPPGHGTLDNSKSMKCY | 1.87 |
| YHSPELTTPPGHGTLDNSKSMKIY | 1.69 |
| YHSPELTTPPGHGTLDNSKSMKSY | 1.9 |
| YHSPELTTPPGHGTLDNSKSMKTY | 1.77 |
| YHSPELTTPPGHGTLDNSKSMKWY | 2.67 |
| YHSPELTTPPGHGTLDNSKSMKYY | 1.77 |
| YHSPELTTPPGHGTLDNSKSMKRY | 1.99 |
| YHSPELTTPPGHGTLDNSKSMKKY | 2.33 |
| YHSPELTTPPGHGTLDNSKSMKQY | 2.08 |
| YHSPELTTPPGHGTLDNSKSMKDY | 2.28 |
| YHSPELTTPPGHGTLDNSKSMKHY | 2.24 |
| YHSPELTTPPGHGTLDNSKSMKMY | 1.98 |
| YHSPELTTPPGHGTLDNSKSMKAY | 2.36 |
| YHSPELTTPPGHGTLDNSKSMKVY | 2.18 |
| YHSPELTTPPGHGTLDNSNSMKPY | 2.44 |
| YHSPELTTPPGHGTLDNSESMKPY | 2.59 |
| YHSPELTTPPGHGTLDNSPSMKPY | 2.22 |
| YHSPELTTPPGHGTLDNSSSMKPY | 2.17 |

| Variant | protein stability index |
| --- | --- |
| YHSPELTTPPGHGTLDNSHSMKPY | 2.07 |
| YHSPELTTPPGHGTLDNSMSMKPY | 2.37 |
| YHSPELTTPPGHGTLDNSRSMKPY | 1.92 |
| YHSPELTTPPGHGTLDNSFSMKPY | 1.85 |
| YHSPELTTPPGHGTLDNSWSMKPY | 1.5 |
| YHSPELTTPPGHGTLDNSGSMKPY | 2.21 |
| YHSPELTTPPGHGTLDNSISMKPY | 2.33 |
| YHSPELTTPPGHGTLDNSQSMKPY | 2.24 |
| YHSPELTTPPGHGTLDNSVSMKPY | 2.39 |
| YHSPELTTPPGHGTLDNSTSMKPY | 2.35 |
| YHSPELTTPPGHGTLDNSDSMKPY | 2.85 |
| YHSPELTTPPGHGTLDNSYSMKPY | 1.9 |
| YHSPELTTPPGHGTLDNSLSMKPY | 1.96 |
| YHSPELTTPPGHGTLDNSCSMKPY | 2.05 |
| YHSPELTTPPGHGTLDNSKSMKPS | 2.36 |
| YHSPELTTPPGHGTLDNSKSMKPK | 2.23 |
| YHSPELTTPPGHGTLDNSKSMKPI | 2.21 |
| YHSPELTTPPGHGTLDNSKSMKPR | 2.48 |
| YHSPELTTPPGHGTLDNSKSMKPT | 2.55 |
| YHSPELTTPPGHGTLDNSKSMKPQ | 2.62 |
| YHSPELTTPPGHGTLDNSKSMKPA | 2.24 |
| YHSPELTTPPGHGTLDNSKSMKPV | 2.41 |
| YHSPELTTPPGHGTLDNSKSMKPF | 2.21 |

| Variant | protein stability index |
| --- | --- |
| YHSPELTTPPGHGTLDNSKSMKPE | 2.91 |
| YHSPELTTPPGHGTLDNSKSMKPL | 2.27 |
| YHSPELTTPPGHGTLDNSKSMKPH | 2.45 |
| YHSPELTTPPGHGTLDNSKSMKPD | 2.44 |
| YHSPELTTPPGHGTLDNSKSMKPG | 2.67 |
| YHSPELTTPPGHGTLDNSKSMKPM | 2.02 |
| YHSPELTTPPGHGTLDNSKSMKPC | 2.38 |
| YHSPELTTPPGHGTLDNSKSMKPW | 1.98 |
| YHSPELTTPPGHGTLDNSKSMKPN | 2.44 |
| YHSPELTTPPGHGTLDNSKNMKPY | 2.33 |
| YHSPELTTPPGHGTLDNSKQMKPY | 2.48 |
| YHSPELTTPPGHGTLDNSKPMKPY | 2.3 |
| YHSPELTTPPGHGTLDNSKYMKPY | 2.23 |
| YHSPELTTPPGHGTLDNSKLMKPY | 1.79 |
| YHSPELTTPPGHGTLDNSKIMKPY | 1.7 |
| YHSPELTTPPGHGTLDNSKTMKPY | 2.87 |
| YHSPELTTPPGHGTLDNSKGMKPY | 2.28 |
| YHSPELTTPPGHGTLDNSKMMKPY | 2.43 |
| YHSPELTTPPGHGTLDNSKEMKPY | 2.54 |
| YHSPELTTPPGHGTLDNSKCMKPY | 1.86 |
| YHSPELTTPPGHGTLDNSKAMKPY | 2.04 |
| YHSPELTTPPGHGTLDNSKKMKPY | 1.94 |
| YHSPELTTPPGHGTLDNSKHMKPY | 1.87 |

| Variant | protein stability index |
| --- | --- |
| YHSPELTTPPGHGTLDNSKVMKPY | 1.92 |
| YHSPELTTPPGHGTLDNSKDMKPY | 2.28 |
| YHSPELTTPPGHGTLDNSKWMKPY | 1.97 |
| YHSPELTTPPGHGTLDNSKRMKPY | 1.4 |
| YHSPELTTPPGHGTLDNSKFMKPY | 1.9 |
| YHSPELTTPPGHGTLDNSKSMEPY | 2.46 |
| YHSPELTTPPGHGTLDNSKSMQPY | 2.15 |
| YHSPELTTPPGHGTLDNSKSMCPY | 1.81 |
| YHSPELTTPPGHGTLDNSKSMVPY | 2.06 |
| YHSPELTTPPGHGTLDNSKSMHPY | 1.87 |
| YHSPELTTPPGHGTLDNSKSMMPY | 2.15 |
| YHSPELTTPPGHGTLDNSKSMWPY | 2.32 |
| YHSPELTTPPGHGTLDNSKSMNPY | 2.14 |
| YHSPELTTPPGHGTLDNSKSMFPY | 2.25 |
| YHSPELTTPPGHGTLDNSKSMTPY | 2.32 |
| YHSPELTTPPGHGTLDNSKSMGPY | 1.75 |
| YHSPELTTPPGHGTLDNSKSMIPY | 2.41 |
| YHSPELTTPPGHGTLDNSKSMLPY | 2.2 |
| YHSPELTTPPGHGTLDNSKSMAPY | 2.56 |
| YHSPELTTPPGHGTLDNSKSMYPY | 1.83 |
| YHSPELTTPPGHGTLDNSKSMPPY | 1.82 |
| YHSPELTTPPGHGTLDNSKSMRPY | 2.47 |
| YHSPELTTPPGHGTLDNSKSMDPY | 2.55 |

| Variant | protein stability index |
| --- | --- |
| YHSPELTTPPGHGTLDNSKSMSPY | 2.26 |
| YHSPELTTPPGHGTLDNSKSEKPY | 2.35 |
| YHSPELTTPPGHGTLDNSKSSKPY | 2.18 |
| YHSPELTTPPGHGTLDNSKSHKPY | 2.56 |
| YHSPELTTPPGHGTLDNSKSTKPY | 2.67 |
| YHSPELTTPPGHGTLDNSKSNKPY | 2.82 |
| YHSPELTTPPGHGTLDNSKSCKPY | 2.42 |
| YHSPELTTPPGHGTLDNSKSIKPY | 2.84 |
| YHSPELTTPPGHGTLDNSKSAKPY | 2.16 |
| YHSPELTTPPGHGTLDNSKSFKPY | 2.18 |
| YHSPELTTPPGHGTLDNSKSLKPY | 2.44 |
| YHSPELTTPPGHGTLDNSKSDKPY | 2.39 |
| YHSPELTTPPGHGTLDNSKSWKPY | 2.14 |
| YHSPELTTPPGHGTLDNSKSGKPY | 2.71 |
| YHSPELTTPPGHGTLDNSKSVKPY | 2.42 |
| YHSPELTTPPGHGTLDNSKSKKPY | 2.36 |
| YHSPELTTPPGHGTLDNSKSPKPY | 2.62 |
| YHSPELTTPPGHGTLDNSKSRKPY | 2.23 |
| YHSPELTTPPGHGTLDNSKSYKPY | 1.54 |
| YHSPELTTPPGHGTLDNSKSQKPY | 2.32 |
